In patent US20140072613A1 (published 2014):

How the values were obtained:
Test in all cases: cell-based or functional assay
CK1γ1(h) = CK1γ1(h) (human, UniProt Q9HCP0 1-422)
HIPK3(h) = HIPK3(h) (human, UniProt Q9H422 163-562, limits assumed)
PAK5(h) = PAK5(h) (human, UniProt Q9P286 1-719, limits assumed)
Lck(h) = Lck(h) (human, UniProt P06239 1-509)
JAK2(h) = JAK2(h) (human, UniProt O60674 808-1132, limits assumed)
Met(Y1248C)(h) = Met(Y1248C)(h) (human, UniProt P08581-2 974-1408, limits assumed)
Lyn(h) = Lyn(h) (human, UniProt P07948 1-512)
Abl(M351T)(h) = Abl(M351T)(h) (human, UniProt P00519 27-1130, limits assumed)
Hck(h) = Hck(h) (human, UniProt P08631 251-518, limits assumed)
PKA(h) = PKA(h) (human, UniProt P17612 1-351)
EGFR(L858R)(h) = EGFR(L858R)(h) (human, UniProt P00533 696-1210, limits assumed)
JAK3(h) = JAK3(h) (human, UniProt P52333 781-1124, limits assumed)
cKit(V560G)(h) = cKit(V560G)(h) (human, UniProt P10721 544-976)
PKGη(h) = PKGη(h) (human)
CK2α2(h) = CK2α2(h) (human, UniProt P19784 1-350)
TLK2(h) = TLK2(h) (human, UniProt Q86UE8 1-772, limits assumed)
c-RAF(h) = c-RAF(h) (human, UniProt P04049 306-648, limits assumed)
SRPK2(h) = SRPK2(h) (human, UniProt P78362 1-688, limits assumed)
Bmx(h) = biological target: T1, Bmx(h) (human, UniProt P51813 1-675, limits assumed)
T1 sequence (looked up): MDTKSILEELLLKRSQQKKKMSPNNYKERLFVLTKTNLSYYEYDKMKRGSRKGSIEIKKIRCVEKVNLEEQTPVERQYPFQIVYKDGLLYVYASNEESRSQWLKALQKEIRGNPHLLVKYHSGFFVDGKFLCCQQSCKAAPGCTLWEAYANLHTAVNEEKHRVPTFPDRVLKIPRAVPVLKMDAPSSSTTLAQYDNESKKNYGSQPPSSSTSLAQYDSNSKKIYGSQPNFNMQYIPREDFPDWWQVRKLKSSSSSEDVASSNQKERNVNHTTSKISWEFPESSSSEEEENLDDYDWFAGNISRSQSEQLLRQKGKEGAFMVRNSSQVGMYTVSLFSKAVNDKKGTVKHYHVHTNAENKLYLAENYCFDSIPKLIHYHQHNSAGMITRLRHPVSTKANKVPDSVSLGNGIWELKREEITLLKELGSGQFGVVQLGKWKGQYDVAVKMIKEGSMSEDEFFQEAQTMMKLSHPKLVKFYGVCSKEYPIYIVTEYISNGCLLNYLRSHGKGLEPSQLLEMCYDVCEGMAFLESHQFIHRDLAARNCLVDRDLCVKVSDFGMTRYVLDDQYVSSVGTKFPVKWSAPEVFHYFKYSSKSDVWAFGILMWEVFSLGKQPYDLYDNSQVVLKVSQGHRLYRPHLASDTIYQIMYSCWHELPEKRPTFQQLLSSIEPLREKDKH

ACK1(h) = ACK1(h) (human, UniProt Q07912 110-476, limits assumed)
Tie2(R849W)(h) = Tie2(R849W)(h) (human, UniProt Q02763 771-1124, limits assumed)
Plk1(h) = Plk1(h) (human, UniProt P53350 1-603)
FAK(h) = FAK(h) (human, UniProt Q05397 1-1052, limits assumed)
GRK5(h) = GRK5(h) (human, UniProt P34947 1-590)

## FAKLAARLYRKALARQLGVAA [MMI-0300]
CK1γ1(h)
  % activity, 100 µM: 111%
HIPK3(h)
  % activity, 100 µM: 93%
PAK5(h)
  % activity, 100 µM: 110%
Lck(h)
  % activity, 100 µM: -2%
JAK2(h)
  % activity, 100 µM: 133%
Met(Y1248C)(h)
  % activity, 100 µM: 84%
Lyn(h)
  % activity, 100 µM: 69%
Abl(M351T)(h)
  % activity, 100 µM: 90%
Hck(h)
  % activity, 100 µM: 72%

## KAFAKLAARLYRKALARQLGVAA [MMI-0400]
PKA(h)
  % activity, 100 µM: 119%
EGFR(L858R)(h)
  % activity, 100 µM: 52%
JAK3(h)
  % activity, 100 µM: 122%
cKit(V560G)(h)
  % activity, 100 µM: 124%
PKGη(h)
  % activity, 100 µM: 98%
CK2α2(h)
  % activity, 100 µM: 96%
TLK2(h)
  % activity, 100 µM: 151%
c-RAF(h)
  % activity, 100 µM: 102%
SRPK2(h)
  % activity, 100 µM: 97%
Met(Y1248C)(h)
  % activity, 100 µM: 36%
Lyn(h)
  % activity, 100 µM: 3%
Bmx(h)
  % activity, 100 µM: 26%
ACK1(h)
  % activity, 100 µM: 95%
Tie2(R849W)(h)
  % activity, 100 µM: 108%
Hck(h)
  % activity, 100 µM: 72%
Plk1(h)
  % activity, 100 µM: 119%
FAK(h)
  % activity, 100 µM: 96%
GRK5(h)
  % activity, 100 µM: 131%
